Ends that are not written are not given here.

Here are results for four molecules from patent publication US20210054097A1 (Novo Nordisk, published 2021).

The target of assay [1] is T1, FX activation peptide 12-mer NPFDLLDFNQTQ (human).
T1 peptide: NPFDLLDFNQTQ-biotin
The assay is described as follows: peptide ELISA. The procedure:
(§1) The peptides were C-terminally conjugated to biotin and 50 μL of 1 μg/mL peptide solution was used for immobilization in discrete wells of the microtiter plate which was pre-coated with 1 μg/mL streptavidin. Each well was washed with washing buffer (10 mM Tris, 150 mM NaCl, 2.5 mM CaCl₂, 0.05% Tween 20, pH 8.60) followed by addition of 50 μL of 2 μg/mL FLAG-tagged anti-FX Nanobody® or IgG antibody to be tested. After 1 hour non-bound Nanobody®/antibody was washed off using washing buffer.
(§2) Bound anti-FX activation peptide ligand was detected by first binding a HRP-labelled secondary antibody (for FLAG-tagged Nanobodies: Anti-FLAG mAb M2-Peroxidase (HRP) (Sigma Aldrich, US), for antibody: Fcγ Fragment Specific Peroxidase AffiniPure F(ab′)₂ Fragment Goat Anti-Human IgG (Jackson ImmunoResearch Laboratories, Inc., US), or Peroxidase AffiniPure Goat Anti-Mouse IgG (Jackson ImmunoResearch Laboratories, Inc., US)) for 1 hour, and then adding 100 μL TMB-1 ELISA substrate (Kem-En-Tec Diagnostics, Denmark).

The target of assay [2] is T2, FX activation peptide 12-mer ADLDPTENPFDL (human).
T2 peptide: ADLDPTENPFDL-biotin
In words: peptide ELISA. The procedure:
as §1, §2

Assay [3] addresses T3, FX activation peptide 12-mer DLDPTENPFDLL (human).
T3 peptide: DLDPTENPFDLL-biotin
In words: peptide ELISA. As to the method:
as §1, §2

For assay [4], the target named is T4, FX activation peptide 12-mer PYDAADLDPTEN (human).
T4 peptide: PYDAADLDPTEN-biotin
In words: peptide ELISA. The procedure:
as §1, §2

Assay [5] has as its target T5, FX activation peptide 12-mer SVAQATSSSGEA (human).
T5 peptide: SVAQATSSSGEA-biotin
In words: peptide ELISA. The procedure:
as §1, §2

The target of assay [6] is T6, FX activation peptide 12-mer FDLLDFNQTQPE (human).
T6 peptide: FDLLDFNQTQPE-biotin
The assay is described as follows: peptide ELISA. As to the method: as §1, §2

The target of assay [7] is T7, FX activation peptide 12-mer GEAPDSITWKPY (human).
T7 peptide: GEAPDSITWKPY-biotin
The assay is described as follows: peptide ELISA. The procedure: as §1, §2

In assay [8] the target is T8, FX activation peptide 12-mer VAQATSSSGEAP (human).
T8 peptide: VAQATSSSGEAP-biotin
The assay is described as follows: peptide ELISA. The procedure: as §1, §2

The target in assay [9] is T9, FX activation peptide 12-mer LLDFNQTQPERG (human).
T9 peptide: LLDFNQTQPERG-biotin
In words: peptide ELISA. As to the method: as §1, §2

Assay [10] has as its target T10, FX activation peptide 12-mer NQTQPERGDNNL (human).
T10 peptide: NQTQPERGDNNL-biotin
In words: peptide ELISA. As to the method:
as §1, §2

Assay [11] deals with T11, FX activation peptide 12-mer TENPFDLLDFNQ (human).
T11 peptide: TENPFDLLDFNQ-biotin
The assay is described as follows: peptide ELISA. The procedure: as §1, §2

For assay [12], the target named is T12, FX activation peptide 12-mer QTQPERGDNNLT (human).
T12 peptide: QTQPERGDNNLT-biotin
The assay is described as follows: peptide ELISA. The procedure:
as §1, §2

The target in assay [13] is T13, FX activation peptide 12-mer DFNQTQPERGDN (human).
T13 peptide: DFNQTQPERGDN-biotin
In words: peptide ELISA. As to the method:
as §1, §2

Assay [14] concerns the target T14, FX activation peptide 12-mer APDSITWKPYDA (human).
T14 peptide: APDSITWKPYDA-biotin
In words: peptide ELISA. As to the method:
as §1, §2

The target in assay [15] is T15, FX activation peptide 12-mer AQATSSSGEAPD (human).
T15 peptide: AQATSSSGEAPD-biotin
The assay is described as follows: peptide ELISA. As to the method: as §1, §2

The target in assay [16] is T16, FX activation peptide 12-mer EAPDSITWKPYD (human).
T16 peptide: EAPDSITWKPYD-biotin
In words: peptide ELISA. As to the method:
as §1, §2

Assay [17] addresses T17, human plasma-derived Factor X zymogen (human, UniProt P00742 41-179; P00742 183-488).
T17 construct: Plasma-derived, bought (Haematologic Technologies); also called FX; human FX
In words: apparent KD fitted from FXa generation assay. As to the method: The ability of the monovalent anti-FX Nanobody® (Nb) to promote FIXa-mediated FX-activation was determined in the presence of a procoagulant phospholipid membrane according to the principles described by Scheiflinger et al. (2008) J Thromb Haemost, 6:315-322. A Fab of mAb 13F62 (IgG1 isotype, variable sequences identified by SEQ ID NO:6 and 7), also found to bind the activation peptide, were included for comparison. Moreover, anti-FX antibodies as disclosed in U.S. Pat. No. 9,334,331 (J327 and L404-k in said publication), corresponding to the anti-FX arm of ACE910); and more recently in WO2018/021450 (J327 D31H and JYL280 in said publication) and WO2018/098363 (BIIB-12-917 represented by SEQ ID NO:427 and 615 in said publication) are stated to be suitable for use as part of anti-FIX/anti-FX bispecific FVIII mimetic compounds were, furthermore, included for comparison.
Each compound was tested individually in a concentration range from 0-1000 nM, 0-2000 nM, 0-4000 nM or 0-8000 nM by pre-incubation with 1-1.5 nM human plasma-derived FIXa (Haematologic Technologies Inc, USA) and 500 μM 25:75 phosphatidyl serine:phosphatidyl choline phospholipid vesicles (Haematologic Technologies Inc, USA) in assay buffer (50 mM HEPES, 100 mM NaCl, 5 mM CaCl₂, 0.1% (w/v) PEG8000, 1 mg/mL bovine serum albumin, pH 7.3) for 10 minutes. The reaction was initiated by addition of human plasma-derived FX (Haematologic Technologies Inc, USA) to a final concentration of 100 nM and a reaction volume of 50 μL. Following 20 minutes activation at room temperature while agitated (1000 RPM), the reaction was quenched by addition of 25 μL quench buffer (50 mM HEPES, 100 mM NaCl, 60 mM EDTA, 0.1% (w/v) PEG8000, 1 mg/mL bovine serum albumin, pH 7.3). The amount of FXa generated was determined by addition of 25 μL 2 mM S-2765 chromogenic substrate for FXa (Chromogenix, Sweden) and chromogenic substrate conversion was followed by measuring absorbance at 405 nm for 10 minutes in a microplate reader. The observed change in 405 nm absorbance (ΔAbs405/min) was fitted to the quadratic binding equation (eq. 1) to obtain the peak stimulatory activity and EC50.

The target of assay [18] is T17, human plasma-derived Factor X zymogen. The assay is described as follows: cell-based or functional assay.
A further assay concerns the target human activated Factor X (human, UniProt P00742 41-179; P00742 235-488). In words: cell-based or functional assay.

T17 sequence (P00742 41-179, chain 1 of 2): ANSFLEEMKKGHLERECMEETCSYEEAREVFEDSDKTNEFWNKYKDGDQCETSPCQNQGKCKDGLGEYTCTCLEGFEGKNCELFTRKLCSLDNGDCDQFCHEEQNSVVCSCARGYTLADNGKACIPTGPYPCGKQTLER
T17 sequence (P00742 183-488, chain 2 of 2): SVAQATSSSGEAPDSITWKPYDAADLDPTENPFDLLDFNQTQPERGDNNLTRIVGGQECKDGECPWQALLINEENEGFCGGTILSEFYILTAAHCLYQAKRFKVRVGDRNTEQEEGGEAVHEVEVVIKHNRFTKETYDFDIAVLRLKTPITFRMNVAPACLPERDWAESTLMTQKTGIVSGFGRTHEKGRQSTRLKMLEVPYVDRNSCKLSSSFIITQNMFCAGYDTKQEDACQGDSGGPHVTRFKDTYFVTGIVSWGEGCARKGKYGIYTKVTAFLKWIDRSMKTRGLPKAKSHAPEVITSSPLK
Sequence of human activated Factor X (P00742 41-179, chain 1 of 2): as the sequence (P00742 41-179, chain 1 of 2) above
Sequence of human activated Factor X (P00742 235-488, chain 2 of 2): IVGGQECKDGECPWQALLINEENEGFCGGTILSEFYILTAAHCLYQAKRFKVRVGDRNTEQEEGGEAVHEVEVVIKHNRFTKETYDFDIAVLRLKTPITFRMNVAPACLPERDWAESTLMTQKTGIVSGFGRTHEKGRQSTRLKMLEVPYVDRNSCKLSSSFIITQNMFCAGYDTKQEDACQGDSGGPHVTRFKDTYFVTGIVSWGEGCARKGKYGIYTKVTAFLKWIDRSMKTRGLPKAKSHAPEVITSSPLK

B1: Nb 701B09 (VHH)
VHH: EVQLVESGGGVVQPGGSLRLSCAASGRTFSTYAMGWFRQAPGKEREFVAAISWSGSRTYYADSVKGRFTISRDNSKNTVYLQMNSLRPEDTALYYCAADATPANGELDYWGQGTLVTVSS
notes: monovalent Nanobody; also called Nb 701609; not shown: C-terminal FLAG3 and HIS6 tag
With B1, the “ELISA signal relative to background” value in assay [1] is 2.16; in assay [2] it was 0.73; in assay [3], 0.82; in assay [4], 0.88; in assay [5], 0.76; in assay [6] it was 3.27. Besides, the “ELISA signal relative to background” value is 0.86 in [7]; 0.73 in assay [8]; 1.09 in assay [9]; 0.79 in assay [10]; 4.38 in assay [11]; 0.72 in assay [12]. The “ELISA signal relative to background” value stood at 0.87 in assay [13], 0.82 in assay [14], 0.75 in assay [15] and 0.79 in assay [16]. Further, the Kd in assay [17] turned out to be 72.3 nM. Further, the “Increase in FX activation (fold)” value in assay [18] is 83 fold. In the assay with human activated Factor X, the “FXa amidolytic activity (relative to free FXa, fold)” value was determined as 1.06 fold.

B2: Nb 501A02 (VHH)
VHH: EVQLVESGGGLVQPGGSLRLSCAASGFTFSNYEMSWVRQAPGKGLEWVSDIGSGGGVSTYYADSVKGRFTISRDNAKNTLYLQMNSLKPEDTAMYYCARGWTYGSDGMDYWGKGTLVTVSS
notes: monovalent control Nanobody; also called control Nanobody; not shown: C-terminal FLAG3 and HIS6 tag
Regarding B2, the “ELISA signal relative to background” value in assay [1] stood at 0.94; in assay [2], 0.71; in assay [3] it was 0.79; in assay [4], 0.79; in [5], 0.74; in assay [6], 0.85. Moreover, the “ELISA signal relative to background” value stood at 0.94 in [7]; 0.88 in [8]; 0.79 in assay [9]; 0.71 in [10]; 1.09 in [11]; 0.76 in [12]. Moreover, the “ELISA signal relative to background” value in [13] was found to be 0.71; in assay [14] it was 0.74; in [15], 0.79; in assay [16] it was 0.76. The binding result in [1], in [2], in assay [3], in [4], in assay [5] and in [6] was “no binding (tested: 2 µg/mL)” each time. Further, the binding result in [7], in assay [8], in [9], in assay [10], in [11] and in [12] was “no binding (tested: 2 µg/mL)” each time. Further, the binding result in [13], in [14], in assay [15] and in [16] was “no binding (tested: 2 µg/mL)” in each case. The Kd in assay [17] was found to be 802 nM. The “Increase in FX activation (fold)” value in assay [18] was 0.8 fold.

B3: Nb 729C08 (VHH)
VHH: EVQLVESGGGVVQPGGSLRLSCAASGFTFSDYAMSWVRQAPGKGLEWVSGITGGGRTYYADSVKGRFTISRDNSKNTLYLQMNSLRPEDTALYYCAAAILTRTRRTYDYWGQGTLVTVSS
notes: monovalent Nanobody; also called Nb 729008; not shown: C-terminal FLAG3 and HIS6 tag
Take B3: the “ELISA signal relative to background” value in [1] is 3.41; in assay [2] it was 1.11; in assay [3], 1.21; in [4], 1.08; in [5], 1.14; in assay [6], 1.15. For the same molecule, the “ELISA signal relative to background” value in assay [7] came out at 1.15; in assay [8] it was 1.09; in assay [9] it was 1.13; in assay [10], 1.09; in [11] it was 3.14; in [12], 1.04. Moreover, the “ELISA signal relative to background” value in assay [13] amounted to 1.1; in assay [14] it was 1.09; in [15], 1.17; in assay [16] it was 1.11. Further, in [17], the Kd was roughly 1400 nM. Further, the “Increase in FX activation (fold)” value in assay [18] is greater than 32 fold. Further, the “FXa amidolytic activity (relative to free FXa, fold)” value with human activated Factor X is 1.09 fold.

B4: Nb 730C03 (VHH)
VHH: EVQLVESGGGVVQPGGSLRLSCVASGFTFSDYAMSWVRQAPGKGLEWVSGITSGSGRTYYADSVKGRFTISRDNSKNTVYLQMNSLRPEDTALYYCAAAILRGYRKTYDYWGQGTLVTVSS
notes: monovalent Nanobody; also called Nb 730003; not shown: C-terminal FLAG3 and HIS6 tag
B4: the “ELISA signal relative to background” value worked out at 2.82 in assay [1]; 1.25 in assay [2]; 1.26 in assay [3]; 1.2 in assay [4]; 1.21 in assay [5]; 1.28 in assay [6]. Moreover, the “ELISA signal relative to background” value in [7] amounted to 1.24; in assay [8], 1.24; in assay [9], 1.1; in assay [10], 1.22; in assay [11], 2.1; in assay [12] it was 1.1. For the same molecule, the “ELISA signal relative to background” value was 1.16 in [13], 1.16 in [14], 1.19 in assay [15] and 1.24 in assay [16]. In addition, the Kd in assay [17] stood at 63.9 nM. For the same molecule, in assay [18], the “Increase in FX activation (fold)” value is 9.2 fold. Also, in the assay with human activated Factor X, the “FXa amidolytic activity (relative to free FXa, fold)” value is 1.01 fold.
